Target: the molecule itself
Test: SEC; purified LtrK cytoplasmic domain; oligomeric state by size exclusion chromatography; data not shown

B1: LtrK (low temperature responsive sensor kinase, Mbur_0694), soluble cytoplasmic domain, residues 323-592 (domain or fragment, Methanococcoides burtonii, UniProt Q12Y17 323-592, looked up)
chain: NKTLEDEVKSKTSELERSNDYLQNANKKLKELDRLKNDFVSMVSHELKTPLTAMKTSSEFLRESECSREIKEEMLDLIIRNIDRQARMVDDLLDISRIESGKMKFTPEDVNIKEIIEISLHNVTKHAKDKSIKIMVNCPDDVPAISTDKDKLIRIFVNLLTNAIKFTPEEGEVTVIVEDHEDYLQTSIKDNGIGILEEKRDKIFDKFYQVDSTATRKAGGTGLGLAIIKGIIDGQGGKIYLESETGKGSTFTFRLPKELKEDDFTEIEGT
notes: LtrK (Mbur_0694) sensor kinase of Methanococcoides burtonii, cytoplasmic domain (HisKA and HATPase domains), residues 323-592; the N-terminal region with the transmembrane domains was deleted; A Tev site lies between GST and LtrK; Both the GST fusion (~59 kDa) and the GST-cleaved protein (~31 kDa) were purified; also called GST-LtrK; SK; source: E. coli BL21 (DE3), solubilised with Triton X-100 …
stoichiometry N: 2
